Reference: patent US20110250165A1 (Dana-Farber, published 2011)

T1: CXCR2 (UniProt P25025 1-360, limits assumed)
T1 construct: whole, on cells; also called 2222
T1 sequence (looked up): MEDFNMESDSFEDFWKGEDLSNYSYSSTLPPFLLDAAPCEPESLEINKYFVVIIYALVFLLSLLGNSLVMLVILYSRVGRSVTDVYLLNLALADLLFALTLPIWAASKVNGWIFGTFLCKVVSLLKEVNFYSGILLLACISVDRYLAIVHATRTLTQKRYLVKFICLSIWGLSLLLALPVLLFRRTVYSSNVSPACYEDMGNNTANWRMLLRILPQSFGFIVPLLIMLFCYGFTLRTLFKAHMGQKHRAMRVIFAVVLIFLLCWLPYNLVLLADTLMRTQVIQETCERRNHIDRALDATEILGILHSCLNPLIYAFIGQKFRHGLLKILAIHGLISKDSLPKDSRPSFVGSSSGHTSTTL

B1: 19-Fc (Fc fusion)
VH: QVQLVQSGGGVVQPGRSLRLSCAASGFTFSSYPMHWVRQAPGKGLEWMTVISSDGRNKYYPDSVKGRFTISRDNSKNTLYLQMNSLRPEDTAVYYCARGGYHDFWSGPDYWGQGTLVTVSS
VL: EIVLTQSPATLSVSPGERATLSCRASQSVNTNLAWYQQKPGQAPRLLIYGASSRATGIPDRFSGSGSGTDFTLTISRLEPEDFAVYYCQHYGSSPLTFGGGTKLEIK
notes: scFv-Fc fusion; also called X19; scFv-Fc 19
B2: 48-IgG1 (antibody, V domains shown)
VH: QVQLVQSGGGVVLPGRSLRLSCVASGFTFRRYGMHWVRQAPGKGLEWVSLISYDGSKTFYGESVKGRFTISRDNSKNTLYLQMNSLRAEDTAVYYCARATVTTDGYYYMDVWGKGTTVTVSS
VL: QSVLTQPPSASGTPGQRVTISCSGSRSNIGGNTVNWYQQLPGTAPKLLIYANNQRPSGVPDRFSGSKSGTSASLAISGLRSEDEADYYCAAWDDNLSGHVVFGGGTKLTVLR
notes: Bivalent whole human IgG1, VH and VL subcloned into human IgG1 lambda light chain expression vector TCAE6; also called mAb 48
B3: 33-IgG1 (antibody, V domains shown)
VH: QVTLKESGGGVVQPGRSLRLSCAASGFTFTNYGLHWVRQAPGKGLEWVAVISHDGTKKYYADSVKGRFTISRDSSENTLYLQMNSLRPEDSALYYCARDGGYCSGGRCYSYGMDVWGQGTTVTVSS
VL: QSVLTQPPSASGTPGQRVTISCSGSRSNIGSNTVNWYQQLPGTAPKLLIYTNNQRPSGVPDRFSGSKSGTSASLAITGLQAEDEADYYCLSFDSSLTSYVFGTGTKVTVLG
notes: Bivalent whole human IgG1, VH and VL subcloned into human IgG1 lambda light chain expression vector TCAE6; also called mAb 33
B4: 18-Fc (Fc fusion)
VH: QVQLVQSGAEVKKPGASVKVSCKASGYTFTSYGISWVRQAPGQGLEWMGWISAYNGNTNYAQKLQGRVTMTTDTSTSTAYMELRSLRSDDTAVYYCARDTPGIAARRYYYYGMDVWGQGTTVTVSS
VL: SSELTQDPAVSVALGQTVRITCQGDSLRKFFASWYQQKPGQAPVLVIYGKNSRPSGIPDRFSGSNSRNTASLTITGAQAEDEGDYYCNSRDSRDNHQVFGAGTKVTVL
notes: scFv-Fc fusion; also called X18; scFv-Fc 18

Tests used:
4442 CXCR2/CXCR4 chimera [1] = experiment: flow cytometry, scFv-Fc on transfected 293T cells, FITC anti-human IgG
Method: (§1) Epitope mapping experiments were performed to determine the binding sites for the anti-CXCR4 antibodies of the invention. (See Example 5. infra). […] Analysis was performed using a flow cytometer. Binding activity was measured by MFI on total cells gated. The following formula was used to calculate the reactivity:reactivity to each clone=(MFI of chimeric receptor/MFI of wild type CXCR4)×100%.
(§2) Thirty six hours after transfection, the cells were harvested. […] The cells were then washed two times with 0.5% BSA/PBS/0.02% NaN3.
(§3) Next, FITC-labeled secondary antibodies were added to the cells and were allowed to incubate at 4° C. for 30 minutes. The cells were then washed again two times with 0.5% BSA/PBS/0.02% NaN3. Following the second wash, FACS analysis was performed.

human CXCR4 (wild type) [2] = target: T2, human CXCR4 (wild type) (human, UniProt P61073 1-352); experiment: as above
T2 construct: whole, on cells; also called wtCXCR4
T2 sequence (P61073 whole entry): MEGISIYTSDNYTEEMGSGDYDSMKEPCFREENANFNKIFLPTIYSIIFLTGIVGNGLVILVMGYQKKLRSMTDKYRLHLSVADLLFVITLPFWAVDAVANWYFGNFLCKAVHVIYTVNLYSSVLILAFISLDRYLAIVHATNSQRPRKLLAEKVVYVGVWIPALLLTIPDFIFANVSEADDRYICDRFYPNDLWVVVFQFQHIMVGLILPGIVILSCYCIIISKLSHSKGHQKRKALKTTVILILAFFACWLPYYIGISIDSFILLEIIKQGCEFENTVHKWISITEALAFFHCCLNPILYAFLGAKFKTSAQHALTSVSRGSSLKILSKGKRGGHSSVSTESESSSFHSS
Method: as §1, §2, §3

Δ-X4 = experiment: as above
Method: as §1, §2, §3

[3] = target: T3, 2444b CXCR2/CXCR4 chimera (human, UniProt P25025 1-48; P61073 39-352, limits assumed); experiment: as above
Method: as §1, §2, §3

2442 CXCR2/CXCR4 chimera [4] = experiment: as above
Method: as §1, §2, §3

2242 CXCR2/CXCR4 chimera = experiment: as above
Method: as §1, §2, §3

[5] = target: T4, rhesus macaque monkey CXCR4 (rhesus macaque, UniProt P79394 1-352); experiment: as above
T4 construct: whole, on cells
T4 sequence (P79394 whole entry): as the sequence (P61073 whole entry) above, with M24I, N35H, K38R, R146K, N176S, V214D counted along it
Method: as §1, §2, §3

CXCR2 = target: T1, CXCR2; experiment: as above
Method: as §1, §2, §3

mouse CXCR4 = target: T5, mouse CXCR4 (mouse, UniProt P70658 1-359); experiment: as above
T5 construct: whole, on cells; also called mice CXCR4
T5 sequence (P70658 whole entry): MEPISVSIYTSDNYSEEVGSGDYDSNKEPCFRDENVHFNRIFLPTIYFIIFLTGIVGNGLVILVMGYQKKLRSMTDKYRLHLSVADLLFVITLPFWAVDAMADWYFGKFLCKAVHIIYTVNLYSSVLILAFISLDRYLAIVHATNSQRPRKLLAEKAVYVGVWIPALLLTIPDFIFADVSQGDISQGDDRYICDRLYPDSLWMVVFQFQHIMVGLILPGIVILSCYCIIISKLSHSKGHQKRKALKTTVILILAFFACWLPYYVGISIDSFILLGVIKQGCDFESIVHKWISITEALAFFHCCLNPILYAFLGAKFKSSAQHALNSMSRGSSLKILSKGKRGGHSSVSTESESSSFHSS
Method: as §1, §2, §3

4442 CXCR2/CXCR4 chimera [6] = experiment: FACS on 293T cells expressing CXCR4 variants
human CXCR4 (wild type) [7] = target: T2, human CXCR4 (wild type); experiment: FACS on 293T cells expressing CXCR4 variants
[8] = target: T3, 2444b CXCR2/CXCR4 chimera; experiment: FACS on 293T cells expressing CXCR4 variants
2442 CXCR2/CXCR4 chimera [9] = experiment: FACS on 293T cells expressing CXCR4 variants

Binder | reactivity (MFI of chimeric receptor/MFI of wild type CXCR4 x 100%) (4442 CXCR2/CXCR4 chimera [1]) [%] | reactivity (MFI of chimeric receptor/MFI of wild type CXCR4 x 100%) (human CXCR4 (wild type) [2]) [%] | reactivity (MFI of chimeric receptor/MFI of wild type CXCR4 x 100%) (Δ-X4) [%] | reactivity (MFI of chimeric receptor/MFI of wild type CXCR4 x 100%) [3] [%] | reactivity (MFI of chimeric receptor/MFI of wild type CXCR4 x 100%) (2442 CXCR2/CXCR4 chimera [4]) [%] | reactivity (MFI of chimeric receptor/MFI of wild type CXCR4 x 100%) (2242 CXCR2/CXCR4 chimera) [%] | reactivity (MFI of chimeric receptor/MFI of wild type CXCR4 x 100%) [5] [%] | reactivity (MFI of chimeric receptor/MFI of wild type CXCR4 x 100%) (CXCR2) [%] | reactivity (MFI of chimeric receptor/MFI of wild type CXCR4 x 100%) (mouse CXCR4) [%] | binding (+%) (4442 CXCR2/CXCR4 chimera [6]) [%] | binding (+%) (human CXCR4 (wild type) [7]) [%] | binding (+%) [8] [%] | binding (+%) (2442 CXCR2/CXCR4 chimera [9]) [%]
B1 | 5.3 | 100 | 11 | 8.5 | 7.1 | 5.2 | 35.1 | 7.5 | 5.6 | – | – | – | –
B2 | – | – | – | – | – | – | – | – | – | 91.9 | 100 | -2.3 | -2.9
B3 | – | – | – | – | – | – | – | – | – | 99.5 | 100 | 1 | 1.5
B4 | 35.2 | 100 | 48.1 | 28.5 | 37.8 | 10.1 | 89.1 | 2 | 13.1 | – | – | – | –
